Read-outs that look alike come from different tables or passages of the source.
Experiments:
[1] = molecular target: syndecan-4-YFP (UniProt P34901); assay: FRET or BRET; FRET after acceptor (YFP) photobleaching in REFs expressing syndecan-4-YFP and PKM-CFP
[2] = molecular target: T1, syntenin-1 PDZ2 construct containing the C-terminal tail (PDZ2C); assay: SEC; HiLoad 16/600 Superdex 75; 20 mM sodium phosphate, 100 mM NaCl, 0.01% NaN3, 5 mM dithiothreitol, pH 7.0; mass from calibration with standards; conditions: both partners purified
T1 chain: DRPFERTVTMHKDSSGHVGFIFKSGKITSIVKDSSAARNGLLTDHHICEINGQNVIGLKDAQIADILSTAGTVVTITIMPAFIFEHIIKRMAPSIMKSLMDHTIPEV

[3] = molecular target: the molecule itself; assay: crystal structure; syntenin-1 mixed with 4C2 at a 1:4 molar ratio; micro batch under oil; 0.2 M lithium sulfate monohydrate, 0.1 M Tris hydrochloride pH 8.5, 30% PEG 4000; 2.8 Å
[4] = molecular target: the molecule itself; assay: SEC; HiLoad 16/600 Superdex 75; 20 mM sodium phosphate, 100 mM NaCl, 0.01% NaN3, 5 mM dithiothreitol, pH 7.0; mass from calibration with standards
[5] = molecular target: the molecule itself; assay: as above; remark: listed apart in the source

syndecan-4-YFP, sequence (P34901 24-202): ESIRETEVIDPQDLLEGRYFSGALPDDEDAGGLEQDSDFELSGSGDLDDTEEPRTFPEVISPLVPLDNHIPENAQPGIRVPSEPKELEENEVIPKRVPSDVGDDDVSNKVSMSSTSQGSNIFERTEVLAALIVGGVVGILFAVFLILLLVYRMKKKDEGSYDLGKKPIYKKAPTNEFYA

Molecule: PKC catalytic domain (PKM)-CFP (domain or fragment)
- FRET efficiency [1]: 6.39%

B1: syntenin-1 PDZ2 construct containing the C-terminal tail (PDZ2C) (domain or fragment)
chain: T1 chain
modifications: limits not given; same start as PDZ2 through the native C-terminus, consistent with the printed 11.7 kDa; homodimer by gel filtration / limits not given; same start as PDZ2 through the native …
- stoichiometry N [2]: 2

B2: syndecan-4 cytoplasmic domain peptide corresponding to the C2 region (4C2) (peptide)
peptide: APTNEFYA
notes: C2 region of the cytoplasmic domain of rat syndecan-4, residues 195-202; Seen as a dimer in the crystal of the syntenin-1/4C2 complex; also called syndecan peptide; source: synthetic peptide (Anygen Inc.)
- binding result [3]: binds

B3: His-tagged syntenin-1 (His-STN) (domain or fragment)
chain: AEIKQGIREVILCKDQDGKIGLRLKSVDNGIFVQLVQANSPASLVGLRFGDQVLQINGENCAGWSSDKAHKVLKQAFGEKITMTIRDRPFERTVTMHKDSSGHVGFIFKSGKITSIVKDSSAARNGLLTDHHICEINGQNVIGLKDAQIADILSTAGTVVTITIMPAFIFEHIIKRMAPSIMKSLMDHTIPEV
notes: syntenin-1 (STN), recombinant construct with PDZ1, PDZ2 and the C-terminal region; printed M.W 21.8 kDa; The residue numbers (H210, V211) fit the rat protein (surmised); also called STN-1; source: recombinant, purified (Ni-NTA)
- stoichiometry N [4]: 2
- stoichiometry N [5]: 2

Source: paper PMC5103296, “New structural insight of C-terminal region of Syntenin-1, enhancing the molecular dimerization and inhibitory function related on Syndecan-4 signaling” (Scientific Reports, 2016)
